Results published in PMC5065529, “Wnt Signalosome Assembly by DEP Domain Swapping of Dishevelled” (Molecular Cell, 2016).

B1: SNAP-FZD5 (Frizzled 5), wild type [human] / DEP_(414–507)-GFP, minimal DEP domain of DVL2 [human] (parent)
chain 1: GRGLSVHTDMASVTKAMAAPESGLEVRDRMWLKITIPNAFLGSDVVDWLYHHVEGFPERREARKYASGLLKAGLIRHTVNKITFSEQCYYVFGD
chain 2: ASKAPVCQEITVPMCRGIGYNLTHMPNQFNHDTQDEAGLEVHQFWPLVEIQCSPDLRFFLCSMYTPICLPDYHKPLPPCRSVCERAKAGCSPLMRQYGFAWPERMSCDRLPVLGRDAEVLCMDYNRSEATTAPPRPFPAKPTLPGPPGAPASGGECPAGGPFVCKCREPFVPILKESHPLYNKVRTGQVPNCAVPCYQPSFSADERTFATFWIGLWSVLCFISTSTTVATFLIDMERFRYPERPIIFLSACYLCVSLGFLVRLVVGHASVACSREHNHIHYETTGPALCTIVFLLVYFFGMASSIWWVILSLTWFLAAGMKWGNEAIAGYAQYFHLAAWLIPSVKSITALALSSVDGDPVAGICYVGNQNLNSLRGFVLGPLVLYLLVGTLFLLAGFVSLFRIRSVIKQGGTKTDKLEKLMIRIGIFTLLYTVPASIVVACYLYEQHYRESWEAALTCACPGHDTGQPRAKPEYWVLMLKYFMCLVVGITSGVWIWSGKTVESWRRFTSRCCCRPRRGHKSGGAMAAGDYPEASAALTGRTGPPGPAATYHKQVSLSHV

Variants of: B1
Assay: FZD5-dependent PM recruitment of DEP-GFP (cell scoring)
Settings: with DEP_(414–507)-GFP, 100 cells scored in each case

Variant	screen value (parent: 88, read off a plot)	screen value (parent: 52, read off a plot)
chain 2 P241A	20 % of cells	
chain 2 I327A	30 % of cells	
chain 2 L420A	41 % of cells	
chain 2 A326T	41 % of cells	
chain 2 S509A	88 % of cells	52 % of cells

Next, values leading:

screen value (parent: 88, read off a plot)	screen value (parent: 52, read off a plot)	Variant
12 % of cells	1 % of cells	chain 2 T230A
24 % of cells	3 % of cells	chain 2 W504A
36 % of cells	6 % of cells	chain 2 T500A
32 % of cells	8 % of cells	chain 2 Y240A
21 % of cells		chain 2 W494A
86 % of cells	49 % of cells	chain 2 V406A
